5 molecules from PMC3581488 can be followed below.

Holding throughout (assay): GST fusion protein pulldown assay, quantified immunoblot (α-tubulin)
(A western blot detects proteins with antibodies after separation by electrophoresis.)

One test concerns the target Purified bovine tubulin (UniProt Q6B856). To be noted: parent: est. 100, read off a plot.
Test [1] deals with T1, Purified bovine tubulin, Q6B856.
T1 chain: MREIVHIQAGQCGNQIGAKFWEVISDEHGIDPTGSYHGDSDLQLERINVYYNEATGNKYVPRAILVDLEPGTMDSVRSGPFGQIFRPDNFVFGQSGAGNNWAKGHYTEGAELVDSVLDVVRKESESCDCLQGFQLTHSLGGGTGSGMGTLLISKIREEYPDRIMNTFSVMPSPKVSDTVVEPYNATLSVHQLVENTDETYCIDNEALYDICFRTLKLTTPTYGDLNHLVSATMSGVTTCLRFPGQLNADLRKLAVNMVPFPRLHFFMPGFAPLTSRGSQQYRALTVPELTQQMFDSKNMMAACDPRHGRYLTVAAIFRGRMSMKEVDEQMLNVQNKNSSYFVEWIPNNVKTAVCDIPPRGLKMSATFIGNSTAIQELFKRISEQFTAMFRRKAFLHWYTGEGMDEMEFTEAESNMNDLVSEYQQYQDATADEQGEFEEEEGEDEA
To be noted: chain shown with the change.

Test [2] addresses Tubulin from rat brain extracts, P68370;Q3KRE8. To be noted: chain shown with the change; rat brain cytosolic extracts; parent: est. 100; read off a plot.
Where [3] appears, read: parent: est. 100, read off a plot.

Turning to “GST fusion protein encoding the C-terminus (CT) of the angiotensin II type 1 receptor (AT1R) K311E”, the percent of parent in the test with Purified bovine tubulin was 52 % of AT1R CT.

With “GST fusion protein encoding the C-terminus (CT) of the angiotensin II type 1 receptor (AT1R) K310E”, the percent of parent with Purified bovine tubulin was 20 % of AT1R CT.

B1: GST fusion protein encoding the C-terminus (CT) of the angiotensin II type 1 receptor (AT1R) K307E (protein)
chain: LGEKFKKYFLQLLKYIPPKAKSHSSLSTKMSTLSYRPSDNMSSSAKKPASCFEVE
Regarding B1, the percent of parent in test [1] (setting [3]) is 83 % of AT1R CT.

B2: GST fusion protein encoding the C-terminus (CT) of the angiotensin II type 1 receptor (AT1R) K308E (protein)
chain: LGKEFKKYFLQLLKYIPPKAKSHSSLSTKMSTLSYRPSDNMSSSAKKPASCFEVE
In the case of B2, the percent of parent in test [1] (setting [3]) is 100 % of AT1R CT.

B3: GST fusion protein encoding the C-terminus (CT) of the angiotensin II type 1 receptor (AT1R) K307E; K308E; K310E; K311E (protein)
chain: LGEEFEEYFLQLLKYIPPKAKSHSSLSTKMSTLSYRPSDNMSSSAKKPASCFEVE
Regarding B3, the percent of parent in test [1] (setting [3]) is 5 % of AT1R CT; in test [1] (purified tubulin, parent: est. 100, read off a plot) it was 4 % of AT1R CT; in test [2], 12 % of AT1R CT.
